The target in assay [1] is recombinant extracellular domain of FGFR-2c. The experiment in a line: SPR (BIACORE 2000), FGF-20 fixed on CM5 chip, receptor extracellular domain as analyte. On the technique in general: Surface plasmon resonance follows binding to a sensor surface in real time, without labels.
The target of assay [2] is recombinant extracellular domain of FGFR-3c. The assay is described as above.

Data on 1 substance can be found in patent US20060172386A1.

As usually defined, the Kd is the constant that tells how readily two partners part at equilibrium. By koff is commonly meant the rate constant with which the complex falls apart. As usually defined, the kon is a measure of how fast the partners come together. Consider “Recombinant FGF-20 (from UniProt Q9EST9 1-212) (ligand)”, for which, in assay [1], the Kd amounted to 28.1 nM, the koff was 0.0167 s⁻¹ and the kon came out at 595000 M⁻¹ s⁻¹. In assay [2], the Kd turned out to be 217 nM, the koff was 0.0247 s⁻¹ and the kon came out at 115000 M⁻¹ s⁻¹.
